# Data taken from publication PMC6497274, “Isolation of nanobodies against Xenopus embryonic antigens using immune and non-immune phage display libraries” (PLoS ONE, 2019).
# Legend:
# Npm2 (nucleoplasmin) [1] = molecular target: T1, Npm2 (nucleoplasmin) (Xenopus laevis, UniProt P05221); experiment: affinity purification with mass spectrometry; purified His-tagged nanobody incubated with Xenopus embryo lysate (1% Triton X100 lysis buffer), captured on His60 Ni Superflow resin overnight at 4°C, SDS-PAGE, SimplyBlue staining, 170 kDa band cut out for LC-MS/MS; settings: one partner purified
# T1 construct: predicted molecular weight 22 kDa, found as a 170 kDa band in SDS-PAGE; it was not measured here; also called 170 kDa band; source: endogenous, Xenopus laevis embryo lysate; copies: 10
# Npm2 (nucleoplasmin) [2] = molecular target: T1, Npm2 (nucleoplasmin); experiment: far-Western, overlay or dot blot; immunoblot: Xenopus embryo lysates of different stages on 10% SDS-PAGE, PVDF membrane probed overnight at 4°C with purified His-tagged nanobody (0.2-3 μg/ml), detected by anti-His6 antibody; settings: one partner purified
# BSA = molecular target: T2, BSA (Bos taurus, UniProt P02769); experiment: ELISA; 96-well plate coated with 1 μg/ml Ndel1-MBP or BSA; purified nanobodies at 2 μg/ml in 2% skim milk in PBS/0.05% Tween-20, 4 h at room temperature; detected by anti-His-tag antibody; settings: both partners purified
# T2 construct: BSA (serum albumin), negative control coating in ELISA
# T2 sequence (P02769 25-607): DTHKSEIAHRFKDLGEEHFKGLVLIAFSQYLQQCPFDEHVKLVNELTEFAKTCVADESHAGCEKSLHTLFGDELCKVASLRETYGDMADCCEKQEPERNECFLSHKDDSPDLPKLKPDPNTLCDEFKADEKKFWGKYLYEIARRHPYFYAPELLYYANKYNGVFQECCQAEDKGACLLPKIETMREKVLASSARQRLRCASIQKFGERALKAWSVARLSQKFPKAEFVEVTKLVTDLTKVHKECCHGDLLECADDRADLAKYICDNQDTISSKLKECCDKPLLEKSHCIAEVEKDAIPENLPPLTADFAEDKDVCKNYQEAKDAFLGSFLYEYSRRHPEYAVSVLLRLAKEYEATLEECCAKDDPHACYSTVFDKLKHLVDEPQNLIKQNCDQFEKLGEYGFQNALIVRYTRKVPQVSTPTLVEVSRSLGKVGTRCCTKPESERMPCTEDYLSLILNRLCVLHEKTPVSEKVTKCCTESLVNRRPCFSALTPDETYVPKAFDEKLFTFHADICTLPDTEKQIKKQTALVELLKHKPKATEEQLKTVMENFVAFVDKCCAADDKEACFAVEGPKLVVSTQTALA
# T1 sequence (P05221 whole entry): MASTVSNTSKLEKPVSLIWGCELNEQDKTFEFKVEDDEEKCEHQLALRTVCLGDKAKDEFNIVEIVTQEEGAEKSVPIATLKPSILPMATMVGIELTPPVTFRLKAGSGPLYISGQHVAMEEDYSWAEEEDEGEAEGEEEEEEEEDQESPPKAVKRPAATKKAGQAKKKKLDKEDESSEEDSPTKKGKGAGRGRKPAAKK
Binder,binding result (BSA),other results
"NbG12 (VHH, nanobody from the immune llama library; Nucleus-staining nanobody; source: bacterial periplasm (pecan126 phagemid clone), purified (His60-Ni-Superflow resin)) VHH: VQLQASGGGLVQAGSSRRLYCAFSGDTFNGRPMGWFRQAPGKEREFVATISASGGRTYYAGSVLGRFTISRDNTRNTVSLQMNNLTPEDTAVYYCAAKRPTALSDNYDYKTENEYNYWGQGTQVTVS",–,binding result (Npm2 (nucleoplasmin) [1]): binds
"NbN39 (VHH, nanobody from the immune llama library; Nucleus-staining nanobody; used as negative control in the Ndel1 ELISA; source: bacterial periplasm (pecan126 phagemid clone), purified (IMAC)) VHH: VQLQASGGGLVQAGGSLRLSCTFSGGTFNGRNMGWFRQAPGKEREFAATISASGGRTYYAESVLGRFTISRDNARNTVYLQMNNLTPEDTAVYFCAAKRPTRLSENYDYKTENDYDYWGQGTQVTVS",–,binding result (Npm2 (nucleoplasmin) [2]): binds
"NbE9 (VHH, nanobody from the semi-synthetic non-immune llama library Nomad#1; His6-tagged alkaline phosphatase fusion from pecan16; also called AP-NbE9; 6His-AP-NbE9; source: E. coli BL21Star periplasm (pecan16), purified (IMAC); not shown: alkaline phosphatase, C-terminal, kept) VHH: QVKLQESGGGSVQHGGSLRLSCVASGLSFSNHWMYWVRQAQGKGLEWVSSINPSGSFTSYTDSAKGRFTISKANDGHTVYLQMNNLKPEDTGVYYCGLGSWSELEYSYSYWGRGTQVTVSS",no binding (tested: 2 μg/ml),–
"NbE7 (VHH, nanobody from the semi-synthetic non-immune llama library Nomad#1; His6-tagged alkaline phosphatase fusion from pecan16; also called AP-NbE7; source: E. coli BL21Star periplasm (pecan16), purified (IMAC); not shown: alkaline phosphatase, C-terminal, kept) VHH: KVQLQASGGGLVQPGGSLQLSCVASGLSFSNYWMYWVRQAQGKGLEWVSSINPSGSFTSYTDSAKGRFTISKANDGHTVYLQMNNLKPEDTGVYYCGLGSWSELEYSYSYWGRGTQVTVSS",no binding (tested: 2 μg/ml),–
"NbE2 (VHH, nanobody from the semi-synthetic non-immune llama library Nomad#1; His6-tagged alkaline phosphatase fusion from pecan16; source: E. coli BL21Star periplasm (pecan16), purified (IMAC)) VHH: QVKLQQSGGGSVQVGGSLRLSCTASGSAFIINTMSWYRRAPGKQRELVATITRRGTTNYADSVKGRFTISRDNAENTVDLHMNSLKPEDTAVYYCKGYRADWMTDYWGQGTQVTVSS",no binding (tested: 2 μg/ml),–
"NbG6 (VHH, nanobody from the semi-synthetic non-immune llama library Nomad#1; His6-tagged alkaline phosphatase fusion from pecan16; source: E. coli BL21Star periplasm (pecan16), purified (IMAC)) VHH: DVQLQASGGGLVQPGASLRLSCVSTRNTFSIDPMSWYRRAPGKGLEWVSGISNRGGSTSYADSVKGRFTISRDNIKSTLYLQMNSLKPEDTAVYYCNADASRWGSWGQGTQVTVSS",no binding (tested: 2 μg/ml),–
"NbH3 (VHH, nanobody from the semi-synthetic non-immune llama library Nomad#1; His6-tagged alkaline phosphatase fusion from pecan16; source: E. coli BL21Star periplasm (pecan16), purified (IMAC)) VHH: EVKLQESGGGLAQSGGSLRLSCAPQLGAHTIVAMGWYRQPPDSQREFVAMLFANGITRYNEAVKGRFTISRDDAKNTMYLQMNNLKPEDTAVYYCKIYDHSIMTDYWGQGTQVTVSS",no binding (tested: 2 μg/ml),–
